# According to patent publication US20030224036A1, “Hla class I a2 tumor associated antigen peptides and vaccine compositions” (priority 1999, published 2003):
# Columns and labels:
# Conditions in all cases: remark: other sources report otherwise
# [1] = target: HLA-A*0201 (human); experiment: competitive binding assay, purified HLA
# [2] = target: HLA-A*0201 (human); experiment: competitive inhibition assay, purified HLA
# [3] = target: HLA-A*0206 (human); experiment: competitive binding assay, purified HLA
# [4] = target: HLA-A*0206 (human); experiment: competitive inhibition assay, purified HLA
# [5] = target: HLA-A*6802 (human); experiment: competitive binding assay, purified HLA
# [6] = target: HLA-A*6802 (human); experiment: competitive inhibition assay, purified HLA
binder,measurement,setting,value
YLQLVFGIEV [MAGE2.157],IC50,[1],50 nM
same,IC50,[2],50 nM
YLSGANLNV [CEA.605V9],IC50,[3],80 nM
same,IC50,[4],80 nM
VVLGVVFGI [Her2/neu.665],IC50,[5],2000 nM
same,IC50,[6],2000 nM
VMAGVGSPYV [Her2/neu.773],IC50,[2],200 nM
